Cy5 = fluorescent dye, coupled as Cy5-NHS

Results on four molecules are retold here after article PMC4570195, “Self-sorting heterodimeric coiled coil peptides with defined and tuneable self-assembly properties” (Scientific Reports, 2015).

B1: KI (peptide)
peptide: Ac-KIAALKEKIAALKEKNAALKWKIAALKE-NH2
notes: de novo designed 28-residue coiled coil peptide, four heptads (gabcdef); also called KI peptide; source: synthetic peptide (solid phase, Fmoc), purified by reverse phase HPLC

For assay [1], the target named is EV-Cy5. The assay is described as follows: Fluorescence of EV-Cy5 upon addition of EI and KI. The text has this:
To further experimentally verify that the peptides undergo thermodynamic self-sorting we modified EV at the N-terminus with a fluorescent dye (Cy5). Although not considered very environmentally sensitive, cyanine dyes tethered to the terminus of single-stranded DNA display significant changes in fluorescence quantum yield, emission lifetime, and fluorescence anisotropy decay upon hybridization with a complementary DNA strand[34][35]. […] This change in binding partner was also supported by simulations (Fig. 6b). The smaller amount of monomeric EV-Cy5 seen in the experiment after addition of EI is presumably an effect of the kinetics involved in the exchange of partners in the heterodimer. The simulations were run until equilibrium whereas the experimental data was acquired after 30 minutes incubation and the exchange was likely not fully completed within this time frame.
Figure 6 (a) Fluorescence spectra and (b) change in normalized intensity at 667 nm for EV-Cy5 upon addition of EI and KI. Addition of the complimentary peptide KI, thus forming EVKI dimers, results in an increase in fluorescence intensity. Subsequent addition of EI reduces the fluorescence intensity due to formation of EIKI dimers, leaving free EV-Cy5. […]
Fmoc-protected amino acids were purchased from Iris Biotech GmbH. […] Peptide concentrations were determined by UV absorbance (ε280(Trp) = 5690 M^−1 cm^−1). […]

Assay [2] concerns the target T1, EV-Cy5 (Cy5 at the N-terminus (Cy5-NHS used instead of acetic anhydride)).
T1 construct: de novo designed 28-residue coiled coil peptide; also called EV modified at the N-terminus with Cy5; source: synthetic peptide (solid phase, Fmoc), purified by reverse phase HPLC
T1 peptide: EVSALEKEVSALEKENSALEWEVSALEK
The assay is described as follows: fluorescence emission intensity of a Cy5-labelled peptide; EV-Cy5 5 μM, KI 5 μM added, then EI 5 μM; 30 minutes incubation; intensity at 667 nm. To be noted: both partners purified.

For assay [3], the target named is T2, KV (N-terminal acetylation).
T2 construct: de novo designed 28-residue coiled coil peptide, four heptads (gabcdef); also called KV peptide; source: synthetic peptide (solid phase, Fmoc), purified by reverse phase HPLC
T2 peptide: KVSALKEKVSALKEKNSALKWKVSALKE
The assay is described as follows: circular dichroism, thermal denaturation; Kd at 75 °C, as used for the self-sorting simulations. To be noted: both partners purified.

Assay [4] addresses B1. The assay is described as follows: circular dichroism, thermal denaturation; thermal denaturation at different peptide monomer concentrations, Tm related to Kd; Kd at 20 °C; 10 mM phosphate buffer pH 7. The settings on record: both partners purified.
In assay [5] the target is T2, KV. The description is as above. To be noted: both partners purified.
In assay [6] the target is B1. The assay is described as follows: method of continuous variation by circular dichroism; molar ratio of each monomer varied, ellipticity at 222 nm measured. To be noted: both partners purified.
Assay [7] concerns the target T2, KV. The assay is described as above. The settings on record: both partners purified.
In assay [8] the target is B1. Kind of assay: circular dichroism, thermal denaturation; Kd at 75 °C, as used for the self-sorting simulations. To be noted: both partners purified.

On to “EV-Cy5: EV modified at the N-terminus with a fluorescent dye (Cy5) (Cy5-EVSALEKEVSALEKENSALEWEVSALEK-NH2)”, for which, at EV-Cy5 [1] (EI added to EV-Cy5 prior to KI, otherwise identical conditions), the “change in fluorescence emission intensity, EI added prior to KI” value is listed as “a slight decrease in fluorescence intensity”. In the assay on EV-Cy5 [1] (EV-Cy5 5 μM, KI 5 μM then EI 5 μM, 30 min incubation, 667 nm, PB pH 7), the “change in fluorescence emission intensity” value is “a drop in emission intensity, close to the original intensity of the monomeric EV-Cy5”.
As to B1, the binding result in the assay with EV-Cy5 [2] is given as “binds”.

B2: EI (peptide)
peptide: Ac-EIAALEKEIAALEKENAALEWEIAALEK-NH2
notes: de novo designed 28-residue coiled coil peptide, four heptads (gabcdef); also called EI peptide; source: synthetic peptide (solid phase, Fmoc), purified by reverse phase HPLC
In the case of B2, the Kd is greater than 200 nM with KV [3], less than 0.1 nM in the assay with KI [4] and 72 nM with KV [5]. In addition, the “stoichiometry N” value with KI [6] and in the assay with KV [7] was 1 each time.

B3: EV (peptide)
peptide: Ac-EVSALEKEVSALEKENSALEWEVSALEK-NH2
notes: de novo designed 28-residue coiled coil peptide, four heptads (gabcdef); also called EV peptide; source: synthetic peptide (solid phase, Fmoc), purified by reverse phase HPLC
As to B3, the Kd in the assay with KI [8] is greater than 200 nM; with KI [4] it was 85 nM; with KV [5] it was 1400 nM. Also, the “stoichiometry N” value in the assay with KI [6] and in the assay with KV [7] was 1 in each case.
